The source of these data is patent KR20220013302A (dated 2022).

The target of experiment [1] is T1, SARS-CoV-2 바이러스 표면 단백질 (RBD) (SARS-CoV-2, UniProt P0DTC2 319-541). As to the kind of experiment: BLI (Octet), Full IgG. On the technique in general: In BLI a coated tip is dipped into the sample, and binding shifts an interference pattern.
Experiment [2] has as its target T1, SARS-CoV-2 바이러스 표면 단백질 (RBD). Nature of the experiment: BLI (Octet), Full IgG culture supernatant.

B1: No. 32 항체 (Full IgG) (antibody, V domains shown)
VH: EVQLVQSGGGLIQPGGSLRLSCAASEFIVSSNYMTWVRQAPGKGLEWVSIIYPGGSTYYADSVKGRFTISRDNSKNTLYLRMNSLRAEDTAVYYCARDLPLTGTTLDYWGQGTLVTVSS
VL: not shown
One may read the Kd as the concentration at which binding is half-saturated. A higher Kd goes with weaker binding. A word on the koff: it is the rate constant with which the complex falls apart. Low values mean a long-lived complex, high ones a short-lived complex. One may read the kon as the second-order rate constant of association. A lower kon goes with slow association. As for B1, in experiment [1], the equilibrium dissociation constant (Kd) stood at 0.305 nM, the koff amounted to 0.000193 s⁻¹ and the kon was 633000 M⁻¹ s⁻¹. This molecule displayed a Kd in experiment [2] of 0.147 nM.
